No end group written: not given here.
Tests used:
Assay in all cases: ELISA, biotinylated 12-mer peptide on streptavidin, 2 ug/mL FLAG-tagged VHH, anti-FLAG-HRP
[1] = molecular target: T1, LDFNQTQPERGD (human)
T1 peptide: LDFNQTQPERGD-biotin
Procedure: (§1) To determine whether the binding epitope of the anti-FX VHH polypeptide designated “cmpd #1” are located inside the activation peptide (AP) of human FX (SEQ ID NO:2), an ELISA assay was setup. 41 unique 12-mer peptide fragments spanning the 52 residues of the activation peptide with one amino acid spacing were immobilized in microtiter plate wells followed by incubation with the VHH polypeptide to be tested, and detection of bound ligand was performed by addition of a secondary HRP-labelled antibody.
(§2) The peptides were C-terminally conjugated to biotin and 50 μL of 1 μg/mL peptide solution was used for immobilization in discrete wells of the microtiter plate which was pre-coated with 1 μg/mL streptavidin. Each well was washed with washing buffer (10 mM Tris, 150 mM NaCl, 2.5 mM CaCl₂), 0.05% Tween 20, pH 8.60) followed by addition of 50 μL of 2 μg/mL FLAG-tagged anti-FX VHH polypeptide or IgG antibody to be tested. After 1 hour non-bound VHH polypeptide was washed off using washing buffer.
(§3) Bound anti-FX activation peptide ligand was detected by first binding a HRP-labelled secondary antibody (for FLAG-tagged VHH polypeptide: Anti-FLAG mAb M2-Peroxidase (HRP) (Sigma Aldrich, US) for 1 hour, and then adding 100 μL TMB-1 ELISA substrate (Kem-En-Tec Diagnostics, Denmark).

[2] = molecular target: T2, APDSITWKPYDA (human)
T2 peptide: APDSITWKPYDA-biotin
Procedure: as §1, §2, §3

[3] = molecular target: T3, NPFDLLDFNQTQ (human)
T3 peptide: NPFDLLDFNQTQ-biotin
Procedure: as §1, §2, §3

[4] = molecular target: T4, NQTQPERGDNNL (human)
T4 peptide: NQTQPERGDNNL-biotin
Procedure: as §1, §2, §3

[5] = molecular target: T5, TSSSGEAPDSIT (human)
T5 peptide: TSSSGEAPDSIT-biotin
Procedure: as §1, §2, §3

[6] = molecular target: T6, ATSSSGEAPDSI (human)
T6 peptide: ATSSSGEAPDSI-biotin
Procedure: as §1, §2, §3

[7] = molecular target: T7, LDPTENPFDLLD (human)
T7 peptide: LDPTENPFDLLD-biotin
Procedure: as §1, §2, §3

[8] = molecular target: T8, SSSGEAPDSITW (human)
T8 peptide: SSSGEAPDSITW-biotin
Procedure: as §1, §2, §3

[9] = molecular target: T9, WKPYDAADLDPT (human)
T9 peptide: WKPYDAADLDPT-biotin
Procedure: as §1, §2, §3

[10] = molecular target: T10, TWKPYDAADLDP (human)
T10 peptide: TWKPYDAADLDP-biotin
Procedure: as §1, §2, §3

[11] = molecular target: T11, TENPFDLLDFNQ (human)
T11 peptide: TENPFDLLDFNQ-biotin
Procedure: as §1, §2, §3

[12] = molecular target: T12, YDAADLDPTENP (human)
T12 peptide: YDAADLDPTENP-biotin
Procedure: as §1, §2, §3

[13] = molecular target: T13, GEAPDSITWKPY (human)
T13 peptide: GEAPDSITWKPY-biotin
Procedure: as §1, §2, §3

[14] = molecular target: T14, QATSSSGEAPDS (human)
T14 peptide: QATSSSGEAPDS-biotin
Procedure: as §1, §2, §3

[15] = molecular target: T15, EAPDSITWKPYD (human)
T15 peptide: EAPDSITWKPYD-biotin
Procedure: as §1, §2, §3

[16] = molecular target: T16, DAADLDPTENPF (human)
T16 peptide: DAADLDPTENPF-biotin
Procedure: as §1, §2, §3

[17] = molecular target: T17, PDSITWKPYDAA (human)
T17 peptide: PDSITWKPYDAA-biotin
Procedure: as §1, §2, §3

[18] = molecular target: T18, ADLDPTENPFDL (human)
T18 peptide: ADLDPTENPFDL-biotin
Procedure: as §1, §2, §3

[19] = molecular target: T19, AQATSSSGEAPD (human)
T19 peptide: AQATSSSGEAPD-biotin
Procedure: as §1, §2, §3

[20] = molecular target: T20, PFDLLDFNQTQP (human)
T20 peptide: PFDLLDFNQTQP-biotin
Procedure: as §1, §2, §3

[21] = molecular target: T21, QTQPERGDNNLT (human)
T21 peptide: QTQPERGDNNLT-biotin
Procedure: as §1, §2, §3

[22] = molecular target: T22, FDLLDFNQTQPE (human)
T22 peptide: FDLLDFNQTQPE-biotin
Procedure: as §1, §2, §3

[23] = molecular target: T23, … (human)
T23 sequence (peptide, C-terminally conjugated to biotin): LLDFNQTQPERG

- ELISA signal normalized relative to the background signal [1]: 0.97 relative to background
- ELISA signal normalized relative to the background signal [2]: 1.06 relative to background
- ELISA signal normalized relative to the background signal [3]: 3.13 relative to background
- ELISA signal normalized relative to the background signal [4]: 0.92 relative to background
- ELISA signal normalized relative to the background signal [5]: 0.77 relative to background
- ELISA signal normalized relative to the background signal [6]: 0.98 relative to background
- ELISA signal normalized relative to the background signal [7]: 1.11 relative to background
- ELISA signal normalized relative to the background signal [8]: 0.86 relative to background
- ELISA signal normalized relative to the background signal [9]: 0.89 relative to background
- ELISA signal normalized relative to the background signal [10]: 1.13 relative to background
- ELISA signal normalized relative to the background signal [11]: 4.84 relative to background
- ELISA signal normalized relative to the background signal [12]: 0.87 relative to background
- ELISA signal normalized relative to the background signal [13]: 0.93 relative to background
- ELISA signal normalized relative to the background signal [14]: 0.96 relative to background
- ELISA signal normalized relative to the background signal [15]: 0.97 relative to background
- ELISA signal normalized relative to the background signal [16]: 0.88 relative to background
- ELISA signal normalized relative to the background signal [17]: 1.05 relative to background
- ELISA signal normalized relative to the background signal [18]: 0.91 relative to background
- ELISA signal normalized relative to the background signal [19]: 0.97 relative to background
- ELISA signal normalized relative to the background signal [20]: 4.95 relative to background
- ELISA signal normalized relative to the background signal [22]: 4.38 relative to background
- ELISA signal normalized relative to the background signal (relative to background) [23]: 1.88
B1: Cmpd #1 (monovalent anti-FX VHH polypeptide, VHH-1.1) (VHH)
VHH: EVQLVESGGGLVQPGGSLRLSCAASGSIGAFDAMGWYRQAPGKQRELVAGIMVSRGNTNYTDSVKGRFTISRDNAKNTVYLQMNSLKPEDTAVYYCKAVKRPGPGYLEVWGQGTLVTVSS
notes: No protractor
- ELISA signal normalized relative to the background signal [21]: 0.88 relative to background

Source: patent US20240067944A1 (published 2024)
